Sequences and labels used below:
B1: KAT8 regulatory NSL complex subunit 2, residues 28 to 91; numbered along this chain, Q9H9L4 (parent)
chain: CAFTHRPCSHPRLEGQEFCIKHILEDKNAPFKQCSYISTKNGKRCPNAAPKPEKKDGVSFCAEH

± gives the uncertainty stated by the source.

Variants of B1 are the subject of this series. Kind of series: abundance fitness (aPCA) (normalised: wild type 0, dead -1); higher = more abundant; growth selection in yeast, the domain comes from the species named. The conditions noted are these: Homo sapiens.
With CAFTHRPCSHPRLEGQTFCIKHILEDKNAPFKQCSYISTKNGKRCPNAAPKPEKKDGVSFCAEH [E17T], the abundance fitness is -0.051 ± 0.054.

With CAFTHRPCSHPRLEGQDFCIKHILEDKNAPFKQCSYISTKNGKRCPNAAPKPEKKDGVSFCAEH [E17D], the abundance fitness was -0.098 ± 0.11.

On to CAFTHRPCSHPRLEGQHFCIKHILEDKNAPFKQCSYISTKNGKRCPNAAPKPEKKDGVSFCAEH [E17H], for which the abundance fitness is -0.129 ± 0.098.

Consider CAFTHRPCSHPRLEGQKFCIKHILEDKNAPFKQCSYISTKNGKRCPNAAPKPEKKDGVSFCAEH [E17K], for which the abundance fitness is -0.15 ± 0.068.

Regarding CAFTHRPCSHPRLEGQMFCIKHILEDKNAPFKQCSYISTKNGKRCPNAAPKPEKKDGVSFCAEH [E17M], the abundance fitness was -0.041 ± 0.075.

CAFTHRPCSHPRLEGQSFCIKHILEDKNAPFKQCSYISTKNGKRCPNAAPKPEKKDGVSFCAEH [E17S]: the abundance fitness was -0.105 ± 0.056.

In the case of CAFTHRPCSHPRLEGQGFCIKHILEDKNAPFKQCSYISTKNGKRCPNAAPKPEKKDGVSFCAEH [E17G], the abundance fitness was -0.252 ± 0.073.

With CAFTHRPCSHPRLEGQAFCIKHILEDKNAPFKQCSYISTKNGKRCPNAAPKPEKKDGVSFCAEH [E17A], the abundance fitness was -0.207 ± 0.07.

CAFTHRPCSHPRLEGQCFCIKHILEDKNAPFKQCSYISTKNGKRCPNAAPKPEKKDGVSFCAEH [E17C]: the abundance fitness is -0.112 ± 0.12.

On to CAFTHRPCSHPRLEGQLFCIKHILEDKNAPFKQCSYISTKNGKRCPNAAPKPEKKDGVSFCAEH [E17L], for which the abundance fitness is -0.116 ± 0.046.

For CAFTHRPCSHPRLEGQPFCIKHILEDKNAPFKQCSYISTKNGKRCPNAAPKPEKKDGVSFCAEH [E17P], the abundance fitness was -0.137 ± 0.077.

CAFTHRPCSHPRLEGQQFCIKHILEDKNAPFKQCSYISTKNGKRCPNAAPKPEKKDGVSFCAEH [E17Q]: the abundance fitness was -0.077 ± 0.073.

Take CAFTHRPCSHPRLEGQIFCIKHILEDKNAPFKQCSYISTKNGKRCPNAAPKPEKKDGVSFCAEH [E17I]: the abundance fitness is -0.036 ± 0.079.

Turning to CAFTHRPCSHPRLEGQNFCIKHILEDKNAPFKQCSYISTKNGKRCPNAAPKPEKKDGVSFCAEH [E17N], the abundance fitness is -0.023 ± 0.15.

As to CAFTHRPCSHPRLEGQVFCIKHILEDKNAPFKQCSYISTKNGKRCPNAAPKPEKKDGVSFCAEH [E17V], the abundance fitness was -0.102 ± 0.052.

Consider CAFTHRPCSHPRLEGQRFCIKHILEDKNAPFKQCSYISTKNGKRCPNAAPKPEKKDGVSFCAEH [E17R], for which the abundance fitness is -0.216 ± 0.076.

CAFTHRPCSHPRLEGQFFCIKHILEDKNAPFKQCSYISTKNGKRCPNAAPKPEKKDGVSFCAEH [E17F]: the abundance fitness was -0.19 ± 0.091.

With CAFTHRPCSHPRLEGQWFCIKHILEDKNAPFKQCSYISTKNGKRCPNAAPKPEKKDGVSFCAEH [E17W], the abundance fitness was -0.26 ± 0.082.

For the variant CAFTHRPCSHPRLEGQYFCIKHILEDKNAPFKQCSYISTKNGKRCPNAAPKPEKKDGVSFCAEH [E17Y], the abundance fitness is -0.106 ± 0.073.

For the variant CAFTHRPCSHPRLEGQEECIKHILEDKNAPFKQCSYISTKNGKRCPNAAPKPEKKDGVSFCAEH [F18E], the abundance fitness is -0.622 ± 0.092.

For CAFTHRPCSHPRLEGQEGCIKHILEDKNAPFKQCSYISTKNGKRCPNAAPKPEKKDGVSFCAEH [F18G], the abundance fitness is -0.563 ± 0.047.

Turning to CAFTHRPCSHPRLEGQEACIKHILEDKNAPFKQCSYISTKNGKRCPNAAPKPEKKDGVSFCAEH [F18A], the abundance fitness is -0.572 ± 0.064.

Regarding CAFTHRPCSHPRLEGQEHCIKHILEDKNAPFKQCSYISTKNGKRCPNAAPKPEKKDGVSFCAEH [F18H], the abundance fitness was -0.454 ± 0.13.

In the case of CAFTHRPCSHPRLEGQEICIKHILEDKNAPFKQCSYISTKNGKRCPNAAPKPEKKDGVSFCAEH [F18I], the abundance fitness was -0.678 ± 0.065.

Consider CAFTHRPCSHPRLEGQECCIKHILEDKNAPFKQCSYISTKNGKRCPNAAPKPEKKDGVSFCAEH [F18C], for which the abundance fitness was -0.334 ± 0.062.

Regarding CAFTHRPCSHPRLEGQEDCIKHILEDKNAPFKQCSYISTKNGKRCPNAAPKPEKKDGVSFCAEH [F18D], the abundance fitness was -0.547 ± 0.097.

As to CAFTHRPCSHPRLQGQEFCIKHILEDKNAPFKQCSYISTKNGKRCPNAAPKPEKKDGVSFCAEH [E14Q], the abundance fitness is -0.155 ± 0.2.

CAFTHRPCSHPRLMGQEFCIKHILEDKNAPFKQCSYISTKNGKRCPNAAPKPEKKDGVSFCAEH [E14M]: the abundance fitness was -0.034 ± 0.12.

As for CAFTHRPCSHPRLNGQEFCIKHILEDKNAPFKQCSYISTKNGKRCPNAAPKPEKKDGVSFCAEH [E14N], the abundance fitness is -0.334 ± 0.18.

As to CAFTHRPCSHPRLAGQEFCIKHILEDKNAPFKQCSYISTKNGKRCPNAAPKPEKKDGVSFCAEH [E14A], the abundance fitness is -0.107 ± 0.086.

Consider CAFTHRPCSHPRLLGQEFCIKHILEDKNAPFKQCSYISTKNGKRCPNAAPKPEKKDGVSFCAEH [E14L], for which the abundance fitness is -0.12 ± 0.05.

As to CAFTHRPCSHPRLTGQEFCIKHILEDKNAPFKQCSYISTKNGKRCPNAAPKPEKKDGVSFCAEH [E14T], the abundance fitness is -0.129 ± 0.051.

CAFTHRPCSHPRLDGQEFCIKHILEDKNAPFKQCSYISTKNGKRCPNAAPKPEKKDGVSFCAEH [E14D]: the abundance fitness is -0.152 ± 0.13.

Turning to CAFTHRPCSHPRLIGQEFCIKHILEDKNAPFKQCSYISTKNGKRCPNAAPKPEKKDGVSFCAEH [E14I], the abundance fitness is -0.219 ± 0.1.

As for CAFTHRPCSHPRLRGQEFCIKHILEDKNAPFKQCSYISTKNGKRCPNAAPKPEKKDGVSFCAEH [E14R], the abundance fitness was -0.258 ± 0.052.

Regarding CAFTHRPCSHPRLFGQEFCIKHILEDKNAPFKQCSYISTKNGKRCPNAAPKPEKKDGVSFCAEH [E14F], the abundance fitness is -0.252 ± 0.19.

As to CAFTHRPCSHPRLCGQEFCIKHILEDKNAPFKQCSYISTKNGKRCPNAAPKPEKKDGVSFCAEH [E14C], the abundance fitness is -0.168 ± 0.053.

CAFTHRPCSHPRLWGQEFCIKHILEDKNAPFKQCSYISTKNGKRCPNAAPKPEKKDGVSFCAEH [E14W]: the abundance fitness is -0.396 ± 0.088.

Regarding CAFTHRPCSHPRLVGQEFCIKHILEDKNAPFKQCSYISTKNGKRCPNAAPKPEKKDGVSFCAEH [E14V], the abundance fitness is -0.098 ± 0.054.

For CAFTHRPCSHPRLPGQEFCIKHILEDKNAPFKQCSYISTKNGKRCPNAAPKPEKKDGVSFCAEH [E14P], the abundance fitness was -0.141 ± 0.067.

As for CAFTHRPCSHPRLHGQEFCIKHILEDKNAPFKQCSYISTKNGKRCPNAAPKPEKKDGVSFCAEH [E14H], the abundance fitness is -0.262 ± 0.16.

On to CAFTHRPCSHPRLSGQEFCIKHILEDKNAPFKQCSYISTKNGKRCPNAAPKPEKKDGVSFCAEH [E14S], for which the abundance fitness was -0.147 ± 0.059.

The values above are taken from the Human Domainome abundance scans (Beltran et al. 2025).
